Reference: the RNAGym collection of RNA variant scans (doi:10.1101/gr.219683.116)

B1: mRNA-splicing (parent)
chain: AGUUGCUGCUGGGAGCUCCAGCACAGUGAAAUGGACAGAAGGGCAGAGCAA

Variants of: B1
Assay: exon inclusion enrichment index; higher = more inclusion; WT1 exon 5 minigene, HEK293

First: U3C U4A G5A C6G U7G C9A
Second: C6A U7A C9A U10A C44G A45G
The “exon inclusion enrichment index” value of the first is lower: 0.0853 for the first, 0.124 for the second.

Compared with G5A C6U U7A G8U C9A G12A G13U, G5U G8U C9U G11A G12U is higher in “exon inclusion enrichment index” value: 0.000604 for the first, 0.00501 for the second.

Going from G5C C6G U7C U10C G34U A35C to A35U C36A, the “exon inclusion enrichment index” value falls from 1.66 to 0.000875.

Compared with C22A A23U, G5U U7A G8C C9U is lower in “exon inclusion enrichment index” value: 1.56 for the first, 0.582 for the second.

Compared with G5C C6U G8C C9U U10C G43U C44A, G5A U7C G8A U10C G21U is higher in “exon inclusion enrichment index” value: 0.0354 for the first, 1.92 for the second.

First: G5C C6G U7C U10C G33U G34U
Second: G5C C6G U7C U10C G11U G12C
The “exon inclusion enrichment index” value of the first is lower: 0.875 for the first, 1.54 for the second.

First: G5C C6A U7C G8A U10A G33U G34U
Second: G5C C6U G8C C9U U10C A40U G41A
The “exon inclusion enrichment index” value of the first is lower: 0.00723 for the first, 0.0602 for the second.

First: C6A U7C C9A U10C A14U G15C
Second: G5C C6G U7C U10C A20C
The “exon inclusion enrichment index” value of the first is lower: 2.67 for the first, 3.4 for the second.

First: A35C C36U
Second: A35C C36G
The “exon inclusion enrichment index” value of the first is lower: 0.00835 for the first, 0.122 for the second.

Going from G5A C6G U7G C9A A37U to C6A U7C C9A U10C A25U G26A, the “exon inclusion enrichment index” value rises from 0.00604 to 3.54.

Going from U4G U7C G8A U10C to G5A C6G U7G C9A A35G C36U, the “exon inclusion enrichment index” value falls from 1.53 to 0.00169.

Compared with G5A U7C G8A U10C G48A, G5A C6G U7G C9A G43U C44A is lower in “exon inclusion enrichment index” value: 2.99 for the first, 0.00143 for the second.

Going from C18G to G5U G8U C9U G11U G12C, the “exon inclusion enrichment index” value falls from 0.287 to 0.0157.

First: G5A U7C G8A U10C A20G G21C
Second: G26U U27G
The “exon inclusion enrichment index” value of the first is higher: 2.62 for the first, 0.394 for the second.

Compared with G5C C6U G8C C9U U10A, G5A U7C G8A U10C C18U C19G is higher in “exon inclusion enrichment index” value: 0.186 for the first, 0.804 for the second.

First: G5A U7C G8A U10C A25C G26U
Second: G5C C6G U7C U10C A14U G15U
The “exon inclusion enrichment index” value of the first is higher: 2.86 for the first, 1.46 for the second.

Compared with G5C C6A U7C G8A U10A G12C G13A, G41A G42U is lower in “exon inclusion enrichment index” value: 0.181 for the first, 0.107 for the second.

First: C6A U7A C9A U10A G28A
Second: G5A C6U U7A G8U C9A G33A G34C
The “exon inclusion enrichment index” value of the first is higher: 0.174 for the first, 0.0195 for the second.

Going from G5A C6U U7A G8U C9A G33A G34A to G5C C6U G8C C9U U10C A23U, the “exon inclusion enrichment index” value rises from 0.0009 to 1.39.

Compared with G5U G8U C9U C18U, G5A C6G U7G C9A G42A is lower in “exon inclusion enrichment index” value: 0.0536 for the first, 0.025 for the second.

First: G5A U7C G8A U10C A25U G26A
Second: G5C C6U G8C C9U U10C G26C
The “exon inclusion enrichment index” value of the first is higher: 2.39 for the first, 2.29 for the second.

First: G38A A39G
Second: G5A C6U U7A G8U C9A G15C C16A
The “exon inclusion enrichment index” value of the first is higher: 0.186 for the first, 0.0446 for the second.

First: G11U
Second: G5A C6G U7G C9A G43A C44U
The “exon inclusion enrichment index” value of the first is higher: 2.22 for the first, 0.00188 for the second.

First: C6A U7C C9A U10C G11C G12A
Second: A31G U32G
The “exon inclusion enrichment index” value of the first is higher: 2.17 for the first, 0.104 for the second.

First: G5A C6G U7G C9A A25U G26U
Second: U3G G5C C6A U7C G8A U10A
The “exon inclusion enrichment index” value of the first is lower: 0.000854 for the first, 0.043 for the second.

Compared with G5U G8U C9U U27A G28A, G5U G8U C9U A25G G26U is higher in “exon inclusion enrichment index” value: 0.173 for the first, 0.38 for the second.

Compared with C6A U7C C9A U10C C18G C19A, G2A U3A G5C C6A U7C G8A U10A is lower in “exon inclusion enrichment index” value: 3.84 for the first, 0.0895 for the second.

Compared with G5C C6U G8C C9U U10C A14G G15U, C6A U7C C9A U10C G15U C16U is higher in “exon inclusion enrichment index” value: 0.546 for the first, 3.12 for the second.

Compared with G2C U3A C6A U7C C9A U10C, U4C G5U C6U G8C C9U U10C is lower in “exon inclusion enrichment index” value: 2.73 for the first, 1.08 for the second.

Going from G5C C6A U7C G8A U10A G11U to U3G G5A C6G U7G C9A, the “exon inclusion enrichment index” value falls from 0.955 to 0.0125.

Going from G5C C6A U7C G8A U10A A23G C24U to G5C C6A U7C G8A U10A G26U U27A, the “exon inclusion enrichment index” value rises from 0.0154 to 0.0285.

Going from G5C C6A U7C G8A U10A G26U U27C to G5C C6G U7C U10C A40C G41C, the “exon inclusion enrichment index” value rises from 0.613 to 3.53.

First: G5C C6G U7C U10C U27A G28A
Second: G5C C6G U7C C9A U10C
The “exon inclusion enrichment index” value of the first is lower: 3.01 for the first, 4 for the second.

Compared with G5A C6G U7G C9A C16G, C6G C9A U10C is higher in “exon inclusion enrichment index” value: 0.00149 for the first, 1.01 for the second.

Going from G5A U7C G8A U10C A35G C36U to G5A C6U U7A G8U C9A C16U, the “exon inclusion enrichment index” value rises from 0.025 to 0.0512.

Compared with C6A U7A C9A U10A G28A A29C, G5C C6U G8C C9U U10C C18A C19U is lower in “exon inclusion enrichment index” value: 0.433 for the first, 0.0905 for the second.

Compared with G5A U7C G8A U10C C44A A45C, G2U U3C G5A U7C G8A U10C is higher in “exon inclusion enrichment index” value: 3.95 for the first, 4.11 for the second.

Going from G5A U7C G8A U10C C22G to C6A U7C C9A U10C G21C C22G, the “exon inclusion enrichment index” value rises from 3.37 to 3.98.

First: G5A C6U U7A G8U C9A G46A A47U
Second: C6A U7A C9A U10A G12C G13C
The “exon inclusion enrichment index” value of the first is lower: 0.0808 for the first, 1.06 for the second.

Going from G5U C6G to G5U G8U C9U A31U U32C, the “exon inclusion enrichment index” value rises from 0.00229 to 0.282.

Compared with G5A C6G U7G C9A C22A, G5A C6G U7G C9A C22U is lower in “exon inclusion enrichment index” value: 0.00351 for the first, 0.000826 for the second.

For G5A U7C G8A U10C A30C A31G, the “exon inclusion enrichment index” value was 3.4.
